The text below walks through data of IntAct's records for PubMed 33420071.

The labels stand for the following.
B1: Dual oxidase 1 (Homo sapiens), Q9NRD9 (parent)
chain: MGFCLALAWTLLVGAWTPLGAQNPISWEVQRFDGWYNNLMEHRWGSKGSRLQRLVPASYADGVYQPLGEPHLPNPRDLSNTISRGPAGLASLRNRTVLGVFFGYHVLSDLVSVETPGCPAEFLNIRIPPGDPMFDPDQRGDVVLPFQRSRWDPETGRSPSNPRDPANQVTGWLDGSAIYGSSHSWSDALRSFSRGQLASGPDPAFPRDSQNPLLMWAAPDPATGQNGPRGLYAFGAERGNREPFLQALGLLWFRYHNLWAQRLARQHPDWEDEELFQHARKRVIATYQNIAVYEWLPSFLQKTLPEYTGYRPFLDPSISSEFVAASEQFLSTMVPPGVYMRNASCHFQGVINRNSSVSRALRVCNSYWSREHPSLQSAEDVDALLLGMASQIAEREDHVLVEDVRDFWPGPLKFSRTDHLASCLQRGRDLGLPSYTKARAALGLSPITRWQDINPALSRSNDTVLEATAALYNQDLSWLELLPGGLLESHRDPGPLFSTIVLEQFVRLRDGDRYWFENTRNGLFSKKEIEEIRNTTLQDVLVAVINIDPSALQPNVFVWHKGDPCPQPRQLSTEGLPACAPSVVRDYFEGSGFGFGVTIGTLCCFPLVSLLSAWIVARLRMRNFKRLQGQDRQSIVSEKLVGGMEALEWQGHKEPCRPVLVYLQPGQIRVVDGRLTVLRTIQLQPPQKVNFVLSSNRGRRTLLLKIPKEYDLVLLFNLEEERQALVENLRGALKESGLSIQEWELREQELMRAAVTREQRRHLLETFFRHLFSQVLDINQADAGTLPLDSSQKVREALTCELSRAEFAESLGLKPQDMFVESMFSLADKDGNGYLSFREFLDILVVFMKGSPEEKSRLMFRMYDFDGNGLISKDEFIRMLRSFIEISNNCLSKAQLAEVVESMFRESGFQDKEELTWEDFHFMLRDHNSELRFTQLCVKGVEVPEVIKDLCRRASYISQDMICPSPRVSARCSRSDIETELTPQRLQCPMDTDPPQEIRRRFGKKVTSFQPLLFTEAHREKFQRSCLHQTVQQFKRFIENYRRHIGCVAVFYAIAGGLFLERAYYYAFAAHHTGITDTTRVGIILSRGTAASISFMFSYILLTMCRNLITFLRETFLNRYVPFDAAVDFHRLIASTAIVLTVLHSVGHVVNVYLFSISPLSVLSCLFPGLFHDDGSELPQKYYWWFFQTVPGLTGVVLLLILAIMYVFASHHFRRRSFRGFWLTHHLYILLYVLLIIHGSFALIQLPRFHIFFLVPAIIYGGDKLVSLSRKKVEISVVKAELLPSGVTHLRFQRPQGFEYKSGQWVRIACLALGTTEYHPFTLTSAPHEDTLSLHIRAAGPWTTRLREIYSAPTGDRCARYPKLYLDGPFGEGHQEWHKFEVSVLVGGGIGVTPFASILKDLVFKSSVSCQVFCKKIYFIWVTRTQRQFEWLADIIREVEENDHQDLVSVHIYITQLAEKFDLRTTMLYICERHFQKVLNRSLFTGLRSITHFGRPPFEPFFNSLQEVHPQVRKIGVFSCGPPGMTKNVEKACQLINRQDRTHFSHHYENF
partner: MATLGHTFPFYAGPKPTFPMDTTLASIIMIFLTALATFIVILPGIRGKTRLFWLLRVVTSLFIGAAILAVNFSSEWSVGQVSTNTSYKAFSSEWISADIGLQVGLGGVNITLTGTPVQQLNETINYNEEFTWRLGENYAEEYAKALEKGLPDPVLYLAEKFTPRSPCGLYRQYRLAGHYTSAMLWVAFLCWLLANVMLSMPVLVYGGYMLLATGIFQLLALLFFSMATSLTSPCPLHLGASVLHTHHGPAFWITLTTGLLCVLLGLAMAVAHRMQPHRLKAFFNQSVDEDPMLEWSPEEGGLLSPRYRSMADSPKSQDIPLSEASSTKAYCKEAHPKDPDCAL

The test covers variants of B1. As to conditions: with doxa1_human DUOXA1, Q1HG43.
R507A: the “effect of a mutation on the interaction” value is listed as “disrupting interaction strength”.

As for R507E, the “effect of a mutation on the interaction” value is listed as “disrupting interaction strength”.

For the variant R50E, the “effect of a mutation on the interaction” value was “disrupting interaction strength”.
